{
  "source": "paper doi:10.1101/2023.09.01.555870",
  "about": "(bioRxiv, 2023)",
  "proteins": {"B1": {"name": "carboxy-terminal domain (CTD) fragment of λ Ea22 (102-182) (domain or fragment, bacteriophage λ)", "chain": "SNEVREDGNQFLVVRHPGKTPVIKHCTGDLEEFLRQLIEQDPLVTIDIITHRYYGVGGQWVQDAGEYLHMMSDAGIRIKGEIETAV"}},
  "biological_target": "the molecule itself",
  "assay": "NMR solution structure",
  "data": [
    {"protein": "B1", "values": [
      {"measurement": "binding result", "result": "binds"}
    ]}
  ]
}
